The target of assay [1] is T1, human APC-PPACK (active site-blocked APC) (human, UniProt P04070 43-461, active site bound by the tripeptide inhibitor Phe-Pro-Arg-chloromethylketone (PPACK)).
T1 construct: Bought (Haematologic Technologies)
As to the kind of experiment: ELISA. A general note: In an ELISA, binding on a coated surface is turned into a signal by an enzyme label.

Assay [2] deals with T2, human protein C (PC) zymogen (human, UniProt P04070 43-197; P04070 200-461).
T2 construct: Bought
T2 sequence (P04070 43-197, chain 1 of 2): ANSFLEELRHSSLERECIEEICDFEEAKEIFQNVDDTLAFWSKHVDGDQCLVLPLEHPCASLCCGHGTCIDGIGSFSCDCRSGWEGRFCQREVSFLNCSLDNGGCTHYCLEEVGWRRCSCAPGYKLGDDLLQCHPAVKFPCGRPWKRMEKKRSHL
T2 sequence (P04070 200-461, chain 2 of 2): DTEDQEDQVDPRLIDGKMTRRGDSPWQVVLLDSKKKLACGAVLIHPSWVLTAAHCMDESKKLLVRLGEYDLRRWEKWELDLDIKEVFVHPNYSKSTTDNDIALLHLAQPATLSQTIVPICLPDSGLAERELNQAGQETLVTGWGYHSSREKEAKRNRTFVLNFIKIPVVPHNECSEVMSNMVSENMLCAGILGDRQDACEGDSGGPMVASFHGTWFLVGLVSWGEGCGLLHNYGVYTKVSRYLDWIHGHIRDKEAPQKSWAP
Briefly: ELISA screen, PC-coated wells, OD450, n=2 [Continued].

T1 sequence (P04070 other isoform, or with tags, fused parts or gaps): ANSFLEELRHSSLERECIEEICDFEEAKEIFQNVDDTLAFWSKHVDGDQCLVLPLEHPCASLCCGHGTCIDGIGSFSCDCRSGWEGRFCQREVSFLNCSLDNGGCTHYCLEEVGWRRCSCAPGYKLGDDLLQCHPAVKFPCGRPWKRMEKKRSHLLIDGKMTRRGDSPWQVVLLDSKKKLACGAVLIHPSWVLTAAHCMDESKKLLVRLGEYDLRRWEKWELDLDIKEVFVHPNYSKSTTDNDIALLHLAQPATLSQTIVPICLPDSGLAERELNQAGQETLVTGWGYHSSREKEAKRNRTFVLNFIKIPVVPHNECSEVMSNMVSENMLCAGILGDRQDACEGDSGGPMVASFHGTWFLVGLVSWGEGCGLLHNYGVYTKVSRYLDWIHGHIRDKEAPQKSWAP

B1: SR16983-R3-P4-A07 (VHH)
VHH: QVQLVESGGGLVQAGGSLRLSCAASGRTFVGSYVMGWFRQAPGKEREFVAASSRSTGNTVYLDSVKGRFTVSRDDAKNTLYLQMNSLKPEDTAVYYCATRASINYNYAAWPYWGQGTQVTVSS
As to B1, the values for the binding result in assay [1] and in assay [2] were “binds” and “no binding”, respectively.

B2: SR16983-R3-P3-C06 (VHH)
VHH: QLQLVESGGGLVQPGGSLRLSCAASGFTFSTKWMYWVRQGPGKGLEWVSTIDASGGSTYYADSVKGRFTISRDNTEKKVYLQMNSLESADTAVYYCARSAGGQFRGRGTQVTVSS
As for B2, the binding result in assay [1] was “binds”; in assay [2], “no binding”.

B3: SR16983-R3P2H05 (VHH)
VHH: QLQLVESGGGLVQPGGSLRLACAASGFSFDDYAIGWFRQAPGKEREGVSCITSDGSTYYADSVKGRFTISSDYAKNTVHLQMNSLKPEDTAVYYCARGGLLLPKPELFDDWGQGTQVTVSS
Take B3: the binding result in assay [1] was “binds”; in assay [2], “no binding”.

B4: SR16983-R2-P4-G06 (VHH)
VHH: EVQLVESGGGLVQAGGSLRLSCTTSGSTFSITAGGWYRQAPGKQRELVADIANDGSTTYADSVKGRFTISRDNAKNTVELQMSSLKLEDTAVYLCFVVGISDSTPRPRAYWGQGTQVTVSS
On to B4, for which the values for the binding result in assay [1] and in assay [2] were “binds” and “no binding”, respectively.

B5: SR16983-R3P2G08 (VHH)
VHH: QLQLVESGGGLVQAGGSMRLSCTASGSTVRVTAGGWYRQAPGNERELVADIDNGGSTTYADSVKGRFTISRDNAKNAVDLQMNSLKPEDTAVYRCFVIAIPDSAPRPRAYWGQGTQVTVSS
With B5, the values for the binding result in assay [1] and in assay [2] were “binds” and “no binding”, respectively.

B6: SR16983-R3P2H01 (VHH)
VHH: QLQLVQSGGGLVQAGGSLRLSCTASGSTVRVTAGGWYRQTPGNERELVADIDNGGSTTYADSVKGRFTISRDNAKNAVDLQMNSLKPEDTAVYRCFVIAIPDSAPRPRAYWGQGTEVTVSS
Turning to B6, the binding result in assay [2] was “no binding”.

B7: SR16983-R2-P2-G11 (VHH)
VHH: QVQLVESGGGLVQAGGSLRLSCAASGTTFSFNYMGWYRQAPGNQRDLVARISSGGITNYADSVKGRFTISGDNAKNVVYLQMNSLKPEDTARYYCFYNGHLNKWGQGTQVTVSS
In the case of B7, the binding result in assay [1] was “binds”; in assay [2], “no binding”.

B8: SR16983-R3-P5-C03 (VHH)
VHH: QLQLVESGGGLVQAGGSLRLSCAASGTTFSFVYMGWYRQAPGNQRELVARLSSDGSTNYADSVKGRFLISGDNAKNTVYLQMNSLKPEDTARYYCFYNGHLNKWGQGTQVTVSS
B8: the binding result in assay [1] was “binds”; in assay [2], “no binding”.

B9: SR16983-R3-P2-G05 (VHH)
VHH: QLQLVESGGGLVQTGGSLRLSCAASGTTFSFVYMGWYRQAPGNQRDLVARISSDGSTNYADSVKGRFTISGGNAKNTVYLQMNSLKPEDTARYYCFYNGHLNKWGQGTQVTVSS
Take B9: the binding result in assay [1] was “binds”; in assay [2], “no binding”.

B10: SR16983-R2-P5-H07 (VHH)
VHH: QVQLVESGGGLVQAGGSLRLSCAASGTTFSFVYMGWYRQAPGNQRELVARISSDGSTNYSDSVKGRFLISGANAKNTVYLQMNSLKPEDTARYYCFYNGHLNKWGQGTQVTVSS
B10: the results for the binding result in assay [1] and in assay [2] were “binds” and “no binding”, respectively.

B11: SR16983-R3-P2-B02 (VHH)
VHH: QLQLVESGGGLVQAGGSLRLSCAASGTTFSFVYMGWYRQAPGNQRDLVARISSDGSTNYADSVKGRFTISGDNAKNIVYLQMNSLKPEDTARYYCFYNGHLNKWGQGTQVTVSS
Turning to B11, the binding result in assay [1] is given as “binds”; in assay [2], “no binding”.

B12: SR16983-R3-P4-F06 (VHH)
VHH: QLQLVESGGGLVQAGGSLRLSCEASRTTFSFNYMGWYRQAPGNQRDLVARISSGGITNYADSVKGRFTISGDNAKNTVYLQMNSLKPEDTARYYCFYNGHLNKWGQGTQVTVSS
Consider B12, for which the results for the binding result in assay [1] and in assay [2] were “binds” and “no binding”, respectively.

B13: SR16983-R3-P2-E09 (VHH)
VHH: QLQLVESGGGLVQAGGSLRLSCAASGTTFSFNYMGWYRQAPGNQRDLVARISSGGSTNYADSVKGRFTISADNAKNTVYLQMNSLKPEDTARYTCFWNGYTNKWGQGTQVTVSS
As for B13, the figures for the binding result in assay [1] and in assay [2] were “binds” and “no binding”, respectively.

B14: SR16983-R3-P2-D12 (VHH)
VHH: QLQLVESGGGLVQAGGSLRLSCAASGSTFNFNIMGWYRQVPGKQRELVAVINSGGSADYTEDVKGRFTISRDNAKSIMYLQMNSLKPEDTAVYYCNAKKVEPTLFTTTYWGQGTQVTVSS
For B14, the figures for the binding result in assay [1] and in assay [2] were “binds” and “no binding”, respectively.

B15: SR16983-R3-P3-G05 (VHH)
VHH: QLQLVESGGGLVQAGGSLRLSCAASGFTLDDYAIGWFRQAPGKEREGVSCIASSDGSTYYADSVKGRFTISTDNAKNTVYLQMNSLKPEDTAVYYCARGGLLLPKPELFDSWGQGTQVTVSS
In the case of B15, the binding result is “binds” in assay [1] and “no binding” in assay [2].

B16: SR16983-R3-P4-A05 (VHH)
VHH: QLQLVESGGGLVQAGGSLRLSCAASGFTLDDYAIGWFRQAPGKEREGVSCIATSDGSTYYADSVKGRFTISSDAAKNTVYLQMDSLKPEDTAVYYCARGGLLLPKPELFDGWGQGTQVTVST
Regarding B16, the binding result in assay [1] is listed as “binds”; in assay [2] it was “no binding”.

B17: SR16983-R3-P3-A12 (VHH)
VHH: QLQLVESGGGLVQPGGSLRLSCAVSGFTLDDYAIGWFRQAPGKEREGVSSIATSDGSTYYADSVKGRFTISSDNAKNTVYLQMNSLKPEDTAVYYCARGGLLLPRPELYEYWGQGTQVTVSS
Turning to B17, the binding result in assay [1] is given as “binds”; in assay [2], “no binding”.

B18: SR16983-R3-P4-H10 (VHH)
VHH: QVQLVESGGGLVQAGGSLRLSCAASGLTSSTYVMAWFRQAPGKEREFVSVIDSRGDTTYANSVKGRFTTSRDFGKNTVYLQMNSLQPEDTALYYCAARASPAYVARLYAYWGRGTQVTVSS
With B18, the values for the binding result in assay [1] and in assay [2] were “binds” and “no binding”, respectively.

B19: SR16983-R2-P3-F07 (VHH)
VHH: QLQLVESGGGLVQAGGSLRLSCAASGTTFDMNSMGWYRQAPGFKRDLVATISIGGDTNYTDSVKGRFTISRDNAKNTVYMQMNSLKPEDTAVYYCNAERIWPNRRSFWGQGTQVTVSS
Regarding B19, the values for the binding result in assay [1] and in assay [2] were “binds” and “no binding”, respectively.

B20: SR16983-R3-P5-D01 (VHH)
VHH: QLQLVESGGGLVQAGGSLRLSCAASGTTFDMNSIGWYRQAPGKQRELVATISIGGSTNYADSVKGRFTISRGNAKNTVYMQMNSLKPEDTAVYYCNAERIWPNRRTFWGQGTQVTVSS
As for B20, the binding result in assay [1] was “binds”; in assay [2], “no binding”.

(Values after patent publication US20250163183A1 (COAGULANT THERAPEUTICS, published 2025).)
